Measured values from WO2001068708A2 (dated 2001).

T1: fibroblast activating protein alpha (FAPα), cell surface-bound (human, UniProt Q12884 1-760)
T1 construct: whole, on cells; Also used as the target of the FAP-specific immunohistological staining of tumour cryo-sections; also called FAP+ cells; FAP overexpressing fibrosarcoma cells (HT1080)
T1 sequence (looked up): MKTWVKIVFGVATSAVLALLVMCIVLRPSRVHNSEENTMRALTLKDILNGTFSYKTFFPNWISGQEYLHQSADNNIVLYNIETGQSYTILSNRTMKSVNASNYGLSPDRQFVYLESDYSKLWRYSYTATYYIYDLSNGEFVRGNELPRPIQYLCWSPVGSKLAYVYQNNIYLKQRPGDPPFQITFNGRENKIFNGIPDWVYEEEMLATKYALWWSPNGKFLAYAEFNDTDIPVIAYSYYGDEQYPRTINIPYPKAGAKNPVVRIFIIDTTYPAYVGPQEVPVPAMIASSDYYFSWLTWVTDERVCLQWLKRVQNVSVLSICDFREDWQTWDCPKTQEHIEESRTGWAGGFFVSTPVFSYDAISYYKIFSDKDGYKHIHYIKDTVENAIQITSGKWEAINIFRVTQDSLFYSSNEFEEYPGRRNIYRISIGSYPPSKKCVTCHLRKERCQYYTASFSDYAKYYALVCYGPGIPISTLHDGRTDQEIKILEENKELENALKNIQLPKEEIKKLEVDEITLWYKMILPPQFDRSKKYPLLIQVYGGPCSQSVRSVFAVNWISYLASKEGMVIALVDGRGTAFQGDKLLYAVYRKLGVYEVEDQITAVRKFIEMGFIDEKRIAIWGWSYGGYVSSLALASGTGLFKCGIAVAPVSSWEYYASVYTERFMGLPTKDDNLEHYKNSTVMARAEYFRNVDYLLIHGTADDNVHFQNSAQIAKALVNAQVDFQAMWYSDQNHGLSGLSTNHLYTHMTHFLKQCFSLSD

T2: fibroblast activating protein alpha (FAPα), purified / immobilised antigen (human, UniProt Q12884 27-760, limits assumed)
T2 construct: Antigen coated on ELISA wells and immunotubes; The construct is not described; also called human FAP; immobilized FAP
T2 sequence (looked up): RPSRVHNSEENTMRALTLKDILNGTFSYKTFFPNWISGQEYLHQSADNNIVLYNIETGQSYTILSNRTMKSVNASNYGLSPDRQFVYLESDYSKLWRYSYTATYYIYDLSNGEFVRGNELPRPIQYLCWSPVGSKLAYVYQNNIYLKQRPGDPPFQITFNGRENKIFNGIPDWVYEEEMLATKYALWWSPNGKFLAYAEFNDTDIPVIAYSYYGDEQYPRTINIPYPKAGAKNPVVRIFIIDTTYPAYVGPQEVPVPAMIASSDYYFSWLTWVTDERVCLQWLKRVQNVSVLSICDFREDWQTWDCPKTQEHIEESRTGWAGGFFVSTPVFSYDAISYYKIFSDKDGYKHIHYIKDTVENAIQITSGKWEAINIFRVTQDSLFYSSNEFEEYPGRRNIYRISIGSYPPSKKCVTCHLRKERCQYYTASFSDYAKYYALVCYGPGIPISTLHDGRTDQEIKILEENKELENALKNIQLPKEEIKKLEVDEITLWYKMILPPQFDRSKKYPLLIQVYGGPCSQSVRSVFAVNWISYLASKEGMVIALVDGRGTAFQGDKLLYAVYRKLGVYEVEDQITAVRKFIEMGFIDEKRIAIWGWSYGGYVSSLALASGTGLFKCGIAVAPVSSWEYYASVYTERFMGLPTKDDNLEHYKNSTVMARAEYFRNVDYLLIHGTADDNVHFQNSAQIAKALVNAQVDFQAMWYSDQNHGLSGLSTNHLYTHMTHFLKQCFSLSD


Columns and labels:
[1] = target: T1, fibroblast activating protein alpha …; experiment: binding to FAP+ cells, cell analyser, half maximal saturation
[2] = target: T2, fibroblast activating protein alpha …; experiment: sandwich ELISA, half maximal saturation of binding (SC50), c-myc tag detection
[3] = target: T1, fibroblast activating protein alpha …; experiment: flow cytometry on FAP overexpressing HT1080 cells, half maximal saturation (SC50)

EC50 [1] [nM]	EC50 [2] [nM]	EC50 [3] [nM]	Binder
32			scFv #50 as bivalent in minibody format (other) QVQLVESGGGLVQPGGSLRLSCAASGFTFSNYWMSWVRQAPGKGLEWVANIKQDGSEKYYVDSVKGRFTISRDNAKNSLYLQMNSLRAEDTAVYYCARGSLCTDGSCPTIGPGPNWGQGTLVTVSSAPTKAPKLEEGEFSEARVDIQMTQSPSSLSASTGDRVTITCRASQDISSYLAWYQQAPGKAPHLLMSGATTLQTGVPSRFSGSGSGTDFTLTITSLQSEDFATYYCQQYYIYPPTFGQGTRVEIKRTVAAPSVFAA
8 to 12			scFv #13 as bivalent in minibody format (other) QVQLVESGGTLVQPGGSLRLSCAASGFTFSSYAMSWIRQAPGKGLEWVSGISASGGYIDYADSVKGRVTISRDNSKNMAYLQMSSLRAEDTALYYCAKGGNYQMLLDHWGQGTLVTVSSASTKGPKLEEGEFSEARVDIQMTQSPSSLSASTGDRVTITCRASQDISSYLAWYQQAPGKAPHLLMSGATTLQTGVPSRFSGSGSGTDFTLTITSLQSEDFATYYCQQYYIYPPTFGQGTRVEIKRTVAAPSVFAA
	20	20	scFv F19 (parental murine scFv) (scFv, V domains shown) VH: EVQLQQSGPELVKPGASVKMSCKTSRYTFTEYTIHWVRQSHGKSLEWIGGINPNNGIPNYNQKFKGRATLTVGKSSSTAYMELRSLTSEDSAVYFCARRRIAYGYDEGHAMDYWGQGTSVTVSS VL: DIVMSQSPSSLAVSVGEKVTMSCKSSQSLLYSRNQKNYLAWFQQKPGQSPKLLIFWASTRESGVPDRFTGSGFGTDFNLTISSVQAEDLAVYDCQQYFSYPLTFGAGTKLELK
